Substrate in series [1]: C/C(=C\C(=O)O)C(=O)SCCNC(=O)CCNC(=O)[C@H](O)C(C)(C)COP(=O)(O)OP(=O)(O)OC[C@H]1O[C@@H](n2cnc3c(N)ncnc32)[C@H](O)[C@@H]1OP(=O)(O)O
The series can be described thus: purified protein. Type of series: biochemical, Chloroflexus aurantiacus. The note with it: 200 mM HEPES/KOH pH 8.0, 55 °C, 22 nM Mct, intra-molecular CoA transfer C1 to C4.

Substrate in series [2]: C/C(=C\C(=O)SCCNC(=O)CCNC(=O)[C@H](O)C(C)(C)COP(=O)(O)OP(=O)(O)OC[C@H]1O[C@@H](n2cnc3c(N)ncnc32)[C@H](O)[C@@H]1OP(=O)(O)O)C(=O)O
The series can be described thus: purified protein. Format: biochemical, Chloroflexus aurantiacus. The note with it: 200 mM HEPES/KOH pH 8.0, 55 °C, 22 nM Mct, intra-molecular CoA transfer C4 to C1.

B1: Mct (mesaconyl-CoA transferase; mesaconyl-C1:C4-CoA CoA transferase) (Chloroflexus aurantiacus J-10-fl) (protein)
chain: MKGILHGLRVVEGSAFVAAPLGGMTLAQLGADVIRFDPIGGGLDYKRWPVTLDGKHSLFWAGLNKGKRSIAIDIRHPRGQELLTQLICAPGEHAGLFITNFPARGWLSYDELKRHRADLIMVNLVGRRDGGSEVDYTVNPQLGLPFMTGPVTTPDVVNHVLPAWDIVTGQMIALGLLAAERHRRLTGEGQLVKIALKDVGLAMIGHLGMIAEVMINDTDRPRQGNYLYGAFGRDFETLDGKRVMVVGLTDLQWKALGKATGLTDAFNALGARLGLNMDEEGDRFRARHEIAALLEPWFHARTLAEVRRIFEQHRVTWAPYRTVREAIAQDPDCSTDNPMFAMVEQPGIGSYLMPGSPLDFTAVPRLPVQPAPRLGEHTDEILLEVLGLSEAEVGRLHDEGIVAGPDRAA
notes: intertwined homodimer
Consider B1, for which the Km in the series “purified protein [1]” came out at 160 µM; in “purified protein [2]”, 200 µM. Besides, the kcat in the series “purified protein [1]” was 370 s⁻¹; in the series “purified protein [2]”, 320 s⁻¹.

As a reminder, the Km is the concentration of substrate that gives half-maximal velocity. What is called kcat is the number of substrate molecules converted per active site and unit of time at saturation.

The values are drawn from publication PMC9813914, “Structural Basis for a Cork-Up Mechanism of the Intra-Molecular Mesaconyl-CoA Transferase” (Biochemistry, 2022).
